B1: Mutant 37-DXd (conjugate)
heavy: QVQLVESGGGLVQPGGSLRLSCAASGITFPVNAYGWYRQAPGKQRDLVAIISAGGTTNYADSVKGRFTISRDNSKNTLYLQMNSLRAEDTAVYYCYLQRRIGMLRDYWGQGTQVTVSSERKCDDCVECPPCPERKCCVECPPCPAPPVAGPSVFLFPPKPKDTLMISRTPEVTCVVVDVSHEDPEVQFNWYVDGVEVHNAKTKPREEQFNSTFRVVSVLTVVHQDWLNGKEYKCKVSNKGLPAPIEKTISKTKGQPREPQVYTLPPSREEMTKNQVSLTCLVKGFYPSDIAVEWESNGQPENNYKTTPPMLDSDGSFFLYSKLTVDKSRWQQGNVFSCSVMHEALHNHYTQKSLSLSPGK
B2: Mutant 38-DXd (conjugate)
heavy: QVQLVESGGGLVQPGGSLRLSCAASGITFPVNAYGWYRQAPGKQRDLVAIISAGGTTNYADSVKGRFTISRDNSKNTLYLQMNSLRAEDTAVYYCYLQRRIGMLRDYWGQGTQVTVSSERKCEECVECPPCPERKCCVECPPCPAPPVAGPSVFLFPPKPKDTLMISRTPEVTCVVVDVSHEDPEVQFNWYVDGVEVHNAKTKPREEQFNSTFRVVSVLTVVHQDWLNGKEYKCKVSNKGLPAPIEKTISKTKGQPREPQVYTLPPSREEMTKNQVSLTCLVKGFYPSDIAVEWESNGQPENNYKTTPPMLDSDGSFFLYSKLTVDKSRWQQGNVFSCSVMHEALHNHYTQKSLSLSPGK

Assays:
[1] = Hydrophobic interaction chromatography and LC-MS analysis of drug loading; format: physicochemical; details: after TCEP reduction and conjugation with maleimide-GGFG-DXd
Experimental: Antibody 1 and Antibody 2 were separately incubated with TCEP (Sigma) to reduce and open the disulfide bonds between the two heavy chains, followed by the addition of maleimide-GGFG-DXd (MedChemExpress) for conjugation. The conjugates were then purified using a desalting column to remove excess small-molecule drug.

[2] = Size-exclusion chromatography analysis of aggregate formation; format: physicochemical; details: DXd conjugates, FIG. 7 and FIG. 9
Experimental: Size-exclusion chromatography analysis was performed. […]
Based on Antibody 3 and Antibody 4, amino acid residues with different properties were inserted between the cysteine residues at positions 4 and 5. Specifically: nonpolar amino acids, exemplified by the insertion of two alanine residues (A); polar uncharged amino acids, exemplified by the insertion of two serine residues (S); basic amino acids, exemplified by the insertion of two lysine residues (K); and acidic amino acids, exemplified by the insertion of two glutamic acid residues (E) or two aspartic acid residues (D), as shown in Table 5. The different mutants were expressed and purified. […]
The different mutants listed in Table 6 were expressed and purified. […] The thermal stability of these ten heavy-chain antibodies was further evaluated using dynamic light scattering (DLS). A DLS (Wyatt) instrument was used to monitor light scattering of the antibodies during heating from 25 °C to 85 °C, thereby determining the aggregation temperature (Tagg) of the antibodies.
VHH1 was separately linked to the engineered human IgG2 Fc or the engineered human IgG4 Fc shown in Table 7 to construct heavy-chain antibodies. After expression and purification, Mutant 37, Mutant 38, Mutant 39, and Mutant 40 were obtained.

OVCAR-3 cells = assay: Cell killing assay, cell viability by CellTiter-Glo; format: cell-based, human; details: 5 days at 37°C; compared to Antibody 1-DXd, FIG. 11
Experimental: OVCAR-3 cells were seeded into a 96-well plate at a density of 5,000 cells per well and cultured overnight at 37°C. Antibody 1-DXd, Mutant 22-DXd, Mutant 23-DXd, Mutant 37-DXd, Mutant 38-DXd, Mutant 39-DXd, and Mutant 40-DXd were serially diluted and added to the 96-well plate containing OVCAR-3 cells, followed by incubation at 37°C for 5 days. Cell viability was measured using CellTiter-Glo (Promega) to evaluate the killing effects of the antibody-drug conjugates.

Molecule | drug-to-antibody ratio (DAR) value [1] | size-exclusion chromatography peak profile after conjugation [2] | killing effect on OVCAR-3 cells (OVCAR-3 cells)
B1 | 8 | normal | significantly enhanced killing effect
B2 | 8 | normal | significantly enhanced killing effect

Source: patent EP4736886A1, “METHOD FOR PREPARING ANTIBODY-SMALL MOLECULE DRUG CONJUGATE AND USE THEREOF” (priority 2023, dated 2025)
